In patent US20130035249A1 one finds Kd data, which are given here for 1 substance.

Assay [1] has as its target full-length human CEA (human) (UniProt P06731). Nature of the assay: binding to CHO cells expressing full-length CEA (method of the KD not described).
Assay [2] shares this target. The experiment in a line: binding to CHO cells co-expressing full-length CEA and the CEA splice variant (method of the KD not described).

Turning to MEDI-565 (bispecific antibody), the Kd in assay [1] was determined as 5 nM; in assay [2] it was 5.6 nM.
